Substrate in data set [1]: O=P(O)(O)O[C@H]1O[C@H](CO)[C@H](O)[C@H](O)[C@H]1O
The data set is described as follows: purified protein, by the assay type. The conditions noted are these: other: UDP sugar synthesis direction, 2.5 mM UTP, substrate 0 to 5 mM, pH 7.5, 30° C., E. coli expressed, partially purified.

Substrate in data set [2]: O=P(O)(O)O[C@H]1O[C@H](CO)[C@@H](O)[C@H](O)[C@H]1O
The data set can be described thus: purified protein, by the assay type. The note with it: other: UDP sugar synthesis direction, 2.5 mM UTP, substrate 0 to 5 mM, pH 7.5, 30° C.

[3] abbreviates: E. coli expressed, partially purified.

Here are results for 2 proteins from patent US7906705B2.

By Km is commonly meant the concentration of substrate that gives half-maximal velocity.

B1: melon UGGPase (UDP-Gal/Glc pyrophosphorylase), SEQ ID NO: 33 (Cucumis melo) (protein)
chain: MASSLDSAALTLSNLSINGDFASSLPNLQKNLHLLSPQQVELAKILLELGQSHLFEHWAEPGVDDNEKKAFFDQVARLNSSYPGGLASYIKTARGLLADSKEGKNPFDGFTPSVPTGEVLTFGDDSFVSFEDRGVREARKAAFVLVAGGLGERLGYNGIKVALPAETTTGTCFLQSYIEYVLALREASNRLAGESETEIPFVIMTSDDTHTRTVELLESNSYFGMKPSQVKLLKQEKVACLDDNEARLAVDPHNKYRIQTKPHGHGDVHALLYSSGLLKNWHNAGLRWVLFFQDTNGLLFKAIPASLGVSATREYHVNSLAVPRKAKEAIGGITRLTHTDGRSMVINVEYNQLDPLLRATGFPDGDVNNETGYSPFPGNINQLILELGSYIEELSKTQGAIKEFVNPKYKDATKTSFKSSTRLECMMQDYPKTLPPSARVGFTVMDTWVAYAPVKNNPEDAAKVPKGNPYHSATSGEMAIYRANSLVLRKAGVKVADPVEQVFNGQEVEVWPRITWKPKWGLTFSEIKSKINGNCSISPRSTLVIKGKNVYLKDLSLDGTLIVNADEDAEVKVEGSVHNKGWTLEPVDYKDTSVPEEIRIRGFRINKIEQEERN
As to B1, the figures for the Km in data set [1] and in data set [2] (setting [3]) were 430 µM and 270 µM, respectively. The Vmax amounted to 714 μmol mg protein^−1min^−1 in data set [1] and 222 μmol mg protein^−1min^−1 in data set [2] (setting [3]).

B2: melon UGPase (UDP glucose pyrophosphorylase), SEQ ID NO: 35 (Cucumis melo) (protein)
chain: MASAATLSPADTEKLSKLKASVSGLTQISENEKSGFINLVSRYLSGEAQHVEWSKIQTPTDEVVVPYDSLAPVPNDPAETKKLLDKLVVLKLNGGLGTTMGCTGPKSVIEVRNGLTFLDLIVIQIENLNSKYGCNVPLLLMNSFNTHDDTQKIIEKYKGSNVDIHTFNQSQYPRLVAEDYLPLPSKGRTDKDGWYPPGHGDVFPSLKNSGKLDALIAQGKEYVFVANSDNLGAVVDLQILNHLIQNKNEYCMEVTPKTLADVKGGTLISYEGKVQLLEIAQVPDEHVNEFKSIQKFKIFNTNNLWVNLKAIKRLVEANALKMEIIPNPKEVDGIKVLQLETAAGAAIRFFDHAIGINVPRSRFLPVKATSDLLLVQSDLYTLVDGFVLRNKARKDPSNPSIELGPEFKKVGNFLSRFKSIPSIIELDSLKVVGDVSFGAGVVLKGKVTISAKPGTKLAVPDNAVIANKEINGPEDF
Regarding B2, in data set [2] (ND = Not detected), the Km was 240 µM and the Vmax is 238 μmol mg protein^−1min^−1.
